# Source: IntAct's records for PubMed 22921828
# B1: Epidermal growth factor receptor kinase substrate 8 (Homo sapiens), Q12929 (parent)
# chain: MNGHISNHPSSFGMYPSQMNGYGSSPTFSQTDREHGSKTSAKALYEQRKNYARDSVSSVSDISQYRVEHLTTFVLDRKDAMITVDDGIRKLKLLDAKGKVWTQDMILQVDDRAVSLIDLESKNELENFPLNTIQHCQAVMHSCSYDSVLALVCKEPTQNKPDLHLFQCDEVKANLISEDIESAISDSKGGKQKRRPDALRMISNADPSIPPPPRAPAPAPPGTVTQVDVRSRVAAWSAWAADQGDFEKPRQYHEQEETPEMMAARIDRDVQILNHILDDIEFFITKLQKAAEAFSELSKRKKNKKGKRKGPGEGVLTLRAKPPPPDEFLDCFQKFKHGFNLLAKLKSHIQNPSAADLVHFLFTPLNMVVQATGGPELASSVLSPLLNKDTIDFLNYTVNGDERQLWMSLGGTWMKARAEWPKEQFIPPYVPRFRNGWEPPMLNFMGATMEQDLYQLAESVANVAEHQRKQEIKRLSTEHSSVSEYHPADGYAFSSNIYTRGSHLDQGEAAVAFKPTSNRHIDRNYEPLKTQPKKYAKSKYDFVARNNSELSVLKDDILEILDDRKQWWKVRNASGDSGFVPNNILDIVRPPESGLGRADPPYTHTIQKQRMEYGPRPADTPPAPSPPPTPAPVPVPLPPSTPAPVPVSKVPANITRQNSSSSDSGGSIVRDSQRHKQLPVDRRKSQMEEVQDELIHRLTIGRSAAQKKFHVPRQNVPVINITYDSTPEDVKTWLQSKGFNPVTVNSLGVLNGAQLFSLNKDELRTVCPEGARVYSQITVQKAALEDSSGSSELQEIMRRRQEKISAAASDSGVESFDEGSSH
# partner: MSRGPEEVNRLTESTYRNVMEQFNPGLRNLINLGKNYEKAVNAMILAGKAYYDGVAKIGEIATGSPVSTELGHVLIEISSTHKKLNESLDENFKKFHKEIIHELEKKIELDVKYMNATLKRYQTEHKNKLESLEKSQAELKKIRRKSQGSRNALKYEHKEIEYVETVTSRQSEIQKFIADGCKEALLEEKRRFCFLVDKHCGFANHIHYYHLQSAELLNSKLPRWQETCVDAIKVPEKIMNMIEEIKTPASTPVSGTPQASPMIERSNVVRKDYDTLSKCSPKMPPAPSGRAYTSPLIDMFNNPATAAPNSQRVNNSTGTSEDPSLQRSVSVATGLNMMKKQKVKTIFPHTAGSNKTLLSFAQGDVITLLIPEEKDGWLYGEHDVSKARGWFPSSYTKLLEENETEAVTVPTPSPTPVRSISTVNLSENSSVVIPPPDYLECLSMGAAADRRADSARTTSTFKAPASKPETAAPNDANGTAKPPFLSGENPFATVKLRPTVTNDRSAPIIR
# B2: "Secreted effector protein EspF(U)" (Escherichia coli O157:H7), P0DJ88 (parent)
# chain: MINNVSSLFPTVNRNITAVYKKSSFSVSPQKITLNPVKISSPFSPSSSSISATTLFRAPNAHSASFHRQSTAESSLHQQLPNVRQRLIQHLAEHGIKPARSMAEHIPPAPNWPAPPPPVQNEQSRPLPDVAQRLVQHLAEHGIQPARNMAEHIPPAPNWPAPPLPVQNEQSRPLPDVAQRLVQHLAEHGIQPARSMAEHIPPAPNWPAPPPPVQNEQSRPLPDVAQRLMQHLAEHGIQPARNMAEHIPPAPNWPAPTPPVQNEQSRPLPDVAQRLMQHLAEHGIQPARNMAEHIPPAPNWPAPTPPVQNEQSRPLPDVAQRLMQHLAEHGINTSKRS
# partner: B1 partner
# Variants of: B1
# Conditions: with bi2l1_human BAIAP2L1, Q9UHR4
row,Variant,effect of a mutation on the interaction
1,A215W,increasing interaction strength

# Variants of: B2
# Conditions: with bi2l1_human BAIAP2L1, Q9UHR4
row,Variant,effect of a mutation on the interaction
1,W300A,decreasing interaction strength

# Variants of: B2
# Conditions: with bi2l1_human BAIAP2L1, Q9UHR4
# Remark: another data set of the same source
row,Variant,effect of a mutation on the interaction
1,W300A,disrupting interaction strength
